Where “and” joins values, the source holds several entries; their conditions need not be identical. Equal entries are not always repeated.

A short description of data set [1]: Hydrolysis of cephalothin by RG-200-13 with and without 5 mM maltose. The data set is classed as biochemical. The settings on record: substrate cephalothin 250 μM; pH 7.0, 22° C. As for the experimental part:
A 6×His tag was added to the C-terminus of RG-200-13 (also termed “RG13” in Examples below) and the fusion was purified as previously described (Guntas and Ostermeier 2004). The protein was purified to approximately 60% purity. The kinetic constants and binding constants were determined from Eadie-Hofstee plots and Eadie plot equivalents, respectively, using a spectrophotometric assay for nitrocefin hydrolysis. Initial rates for nitrocefin hydrolysis were determined from absorbance at 486 nm monitored as a function of time. The enzyme was incubated at the assay temperature in the absence or presence of saccharide for four minutes prior to performing the assay. All assays contained 100 mM sodium phosphate buffer, pH 7.0. The dissociation constant for maltose was determined using change in velocity of nitrocefin hydrolysis as a signal.
Maltose binding had the largest effect on cephalothin (of the substrates tested), with the velocity of cephalothin hydrolysis being 32-fold higher in the presence of maltose than in its absence.

Data set [2] in a line: Dissociation constant for maltose from initial rate of carbenicillin hydrolysis. The data set is classed as binding. The settings on record: 1.5 mM carbenicillin, 25° C., read-out: Kd maltose, Saturating Carbenicillin, Enzymatic assay.
A short description of data set [3]: Steady state kinetics of nitrocefin hydrolysis, purified RG13 proteins, 25° C. The format is biochemical. The procedure:
(§1) All kinetic assays were performed at 25° C. in the presence of 100 mM sodium phosphate buffer, pH 7.0. Ten μl of enzyme stock was added to 1.59 ml buffer (containing the saccharide, if desired). After incubation for 30 seconds, 0.4 ml of 5× substrate was added and the absorbance at the appropriate wavelength was recorded using the Cary50 UV-VIS spectrophotometer. The wavelength monitored was 486 nm, 240 nm, and 232 nm for nitrocefin, carbenicillin, and ampicillin respectively. From the initial rate of reaction the kinetic constants were determined using Eadie-Hofstee plots. […] The rate data was consistent with a small hysteretic effect (Brennan et al. 1994) and not substrate inhibition as preincubation of the enzyme with the substrate for one minute prevented the lag from occurring upon addition of more substrate. Therefore, the steady state parameters for nitrocefin hydrolysis in the absence of maltose were determined by measuring the rate at 1-2 minutes (well after the lag) and correcting the substrate concentration by subtracting the amount of substrate hydrolyzed. In all cases the extent of reaction at the point the rate was measured was less than 25%. In the presence of maltose, no lag was observed.

Data set [4] can be described thus: Ampicillin hydrolysis by purified RG13, 25° C. The data set is classed as biochemical. As to conditions: 50 μM ampicillin. The procedure: as §1
Where [5] appears, read: effector maltose 5 mM (saturating).
[6] abbreviates: effector maltose 5 mM (saturating), nitrocefin, 25° C.
The mark [7] stands for this setting: effector β-cyclodextrin 5 mM, nitrocefin, 25° C.
Where [8] appears, read: no effector, nitrocefin, pH 7.0, 25° C.

On to “RG13: MBP-BLA fusion switch MBP[1-316]-BLA[227-286]-GSGGG-BLA[24-226]-S-MBP[319-370]; SEQ ID NO: 61”, for which the “Fold increase in velocity of cephalothin hydrolysis with 5 mM maltose” value in data set [1] came to 32 fold. The Kd in data set [2] was 0.9 ± 0.1 µM. Also, the “Increase in the reaction rate on addition of subsaturating maltose” value in data set [3] (20 μM nitrocefin, 2.5 nM RG13, 2 ml, 20 μl of 1 M maltose added (FIG. 7B)) is given as 10 fold. For the same substance, the “Km Ratio (with effector)/(without effector)” value in data set [3] (effector maltose 5 mM) came to 0.12 ± 0.03; in data set [3] (effector β-cyclodextrin 5 mM) it was 1.6 ± 0.4. Also, the “kcat Ratio (with effector)/(without effector)” value in data set [3] (setting [5]) was 3 and 3.1 ± 0.6; in data set [3] (effector β-cyclodextrin 5 mM) it was 2.9 ± 0.6. For the same substance, the “kcat/Km Ratio (with effector)/(without effector)” value in data set [3] (setting [5]) was 25 and 25 ± 7; in data set [3] (effector β-cyclodextrin 5 mM), 1.8 ± 0.6. Moreover, the values for the Km in data set [3] (setting [6]), in data set [3] (setting [7]) and in data set [3] (setting [8]) were 68 ± 4 µM, 870 ± 90 µM and 550 ± 120 µM, respectively. The kcat is 620 ± 60 s⁻¹ and 620 ± 30 s⁻¹ in data set [3] (setting [6]); 590 ± 60 s⁻¹ in data set [3] (setting [7]); 200 ± 40 s⁻¹ in data set [3] (setting [8]). Besides, the “Decrease of Km with saturating amounts of maltose” value in data set [3] (nitrocefin, 25° C.) came to 8 fold. In addition, the “Effect of non-ligands on rate of nitrocefin hydrolysis” value in data set [3] (sucrose, lactose and galactose 5 mM, 20 μM nitrocefin (FIG. 7A)) was “no effect”. In addition, the “Increase in the rate of nitrocefin hydrolysis upon addition of ligand” value in data set [3] (β-cyclodextrin 5 mM, 20 μM nitrocefin (FIG. 7A)) is 2 fold. In addition, the “Rate increase with maltose” value in data set [4] is 16 fold.

Source of the values: patent US9290544B2, “Methods for making and using molecular switches involving circular permutation” (priority 2004, dated 2016).
